Source: article doi:10.1101/2020.12.24.423824 (bioRxiv, 2020)

B1: GFP10-CLN3 (natural protein, UniProt Q13286 1-438, looked up)
chain: MGGCAGSRRRFSDSEGEETVPEPRLPLLDHQGAHWKNAVGFWLLGLCNNFSYVVMLSAAHDILSHKRTSGNQSHVDPGPTPIPHNSSSRFDCNSVSTAAVLLADILPTLVIKLLAPLGLHLLPYSPRVLVSGICAAGSFVLVAFSHSVGTSLCGVVFASISSGLGEVTFLSLTAFYPRAVISWWSSGTGGAGLLGALSYLGLTQAGLSPQQTLLSMLGIPALLLASYFLLLTSPEAQDPGGEEEAESAARQPLIRTEAPESKPGSSSSLSLRERWTVFKGLLWYIVPLVVVYFAEYFINQGLFELLFFWNTSLSHAQQYRWYQMLYQAGVFASRSSLRCCRIRFTWALALLQCLNLVFLLADVWFGFLPSIYLVFLIILYEGLLGGAAYVNTFHNIALETSDEHREFAMAATCISDTLGISLSGLLALPLHDFLCQLS
B2: RILP-GFP10 (natural protein, UniProt Q96NA2 1-401, looked up)
chain: MEPRRAAPGVPGWGSREAAGSASAAELVYHLAGALGTELQDLARRFGPEAAAGLVPLVVRALELLEQAAVGPAPDSLQVSAQPAEQELRRLREENERLRRELRAGPQEERALLRQLKEVTDRQRDELRAHNRDLRQRGQETEALQEQLQRLLLVNAELRHKLAAMQTQLRAAQDRERERQQPGEAATPQAKERARGQAGRPGHQHGQEPEWATAGAGAPGNPEDPAEAAQQLGRPSEAGQCRFSREEFEQILQERNELKAKVFLLKEELAYFQRELLTDHRVPGLLLEAMKVAVRKQRKKIKAKMLGTPEEAESSEDEAGPWILLSDDKGDHPPPPESKIQSFFGLWYRGKAESSEDETSSPAPSKLGGEEEAQPQSPAPDPPCSALHEHLCLGASAAPEA

Molecular target: RlucII-Rab7A (UniProt P51149 1-207)
Sequence (P51149 whole entry): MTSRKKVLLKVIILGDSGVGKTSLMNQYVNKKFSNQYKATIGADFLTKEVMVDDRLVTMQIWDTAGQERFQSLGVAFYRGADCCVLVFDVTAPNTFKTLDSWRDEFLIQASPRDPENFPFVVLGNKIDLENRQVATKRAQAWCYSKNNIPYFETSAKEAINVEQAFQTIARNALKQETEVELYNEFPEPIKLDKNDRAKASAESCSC
Experiment: FRET or BRET

Binder | fold increase of BRET50 in CLN5KO cells against wild-type HeLa cells
B1 | 2.85 fold
B2 | 3 fold
